# Results published in patent US20240181013A1, “POEGMA COPOLYMER CONJUGATES AND METHODS OF TREATING DISEASES” (Duke University, priority 2021, published 2024).
# Assays:
# [1] = system: C57BL6/J mice; conditions: mouse, in vivo
# Description: (§1) Immunogenicity. Immunogenicity of POEGMA was tested and compared to that of PEG in three sets of immunogenicity experiments. […] In the second set of experiments, mice were injected with OVA (Invivogen), OVA-PEG10K, and OVA-POEGMA10K at 9.6 nmol kg^−1. In the final set, OVA, OVA-PEG10K, and OVA-POEGMA10K were emulsified in an equal volume of sterile and endotoxin-free adjuvant (Invivogen) and then administrated into 7-week-old C57BL/6J mice (n=10) at 9.6 nmol kg^−1. Complete Freund's adjuvant (CFA) was used for the first injection, while incomplete Freund's adjuvant (IFA) was the adjuvant of choice for the rest of the injections. In all experimental sets, an equal injection volume of PBS (or PBS emulsified in CFA or IFA) was used as a negative control. All drugs were administrated into mice every 17 days three times (Day 0, 17, and 34). […]
# (§2) Analysis of anti-drug antibodies (ADA), ADAs were analyzed using a Luminex multiplex immunoassay (LMI) according to the manufacturer's instructions with minor modifications. […]
# (§3) In a typical LMI assay, 50 μl of the diluted plasma samples (n=3) were transferred to a black, round-bottom 96-well-plate (Corning). […] Finally, magnetic beads were suspended in 100 μl of assay buffer, followed by measuring mean fluorescence signal intensity (MFI) using MAGPIX (Luminex) instrument. […]
# [2] = system: C57BL/6J mice; conditions: mouse, in vivo, sc
# Description: as §1, §2, §3
Molecule,"PEG-specific IgM titer, higher than with exendin-PEG [1]",anti-POEGMA response with Freund's adjuvant [2]
"OVA-PEG: ovalbumin conjugated to ~10 kDa PEG via activated carbonate-amine conjugation (conjugate, UniProt P01012 2-386, looked up, 10 kDa PEG conjugate) Ovalbumin: GSIGAASMEFCFDVFKELKVHHANENIFYCPIAIMSALAMVYLGAKDSTRTQINKVVRFDKLPGFGDSIEAQCGTSVNVHSSLRDILNQITKPNDVYSFSLASRLYAEERYPILPEYLQCVKELYRGGLEPINFQTAADQARELINSWVESQTNGIIRNVLQPSSVDSQTAMVLVNAIVFKGLWEKAFKDEDTQAMPFRVTEQESKPVQMMYQIGLFRVASMASEKMKILELPFASGTMSMLVLLPDEVSGLEQLESIINFEKLTEWTSSNVMEERKIKVYLPRMKMEEKYNLTSVLMAMGITDVFSSSANLSGISSAESLKISQAVHAAHAEINEAGREVVGSAEAGVDAASVSEEFRADHPFLFCIKHIATNAVLFFGRCVSP",~60 fold,
"OVA-POEGMA: ovalbumin conjugated to ~10 kDa EG3 POEGMA via activated carbonate-amine conjugation (conjugate, UniProt P01012 2-386, looked up, 10 kDa EG3 POEGMA conjugate) Ovalbumin: GSIGAASMEFCFDVFKELKVHHANENIFYCPIAIMSALAMVYLGAKDSTRTQINKVVRFDKLPGFGDSIEAQCGTSVNVHSSLRDILNQITKPNDVYSFSLASRLYAEERYPILPEYLQCVKELYRGGLEPINFQTAADQARELINSWVESQTNGIIRNVLQPSSVDSQTAMVLVNAIVFKGLWEKAFKDEDTQAMPFRVTEQESKPVQMMYQIGLFRVASMASEKMKILELPFASGTMSMLVLLPDEVSGLEQLESIINFEKLTEWTSSNVMEERKIKVYLPRMKMEEKYNLTSVLMAMGITDVFSSSANLSGISSAESLKISQAVHAAHAEINEAGREVVGSAEAGVDAASVSEEFRADHPFLFCIKHIATNAVLFFGRCVSP",,only a weak IgM response disappearing after the first injection
